Results from patent CN118184778A.

Target: 重组AD7c-NTP蛋白 (human)
Test: indirect ELISA; plate coated with 1 μg/mL recombinant AD7c-NTP, antibody serially diluted, HRP goat anti-mouse IgG, OD450

重组AD7c-NTP蛋白 (human), sequence (chain, as listed by the source): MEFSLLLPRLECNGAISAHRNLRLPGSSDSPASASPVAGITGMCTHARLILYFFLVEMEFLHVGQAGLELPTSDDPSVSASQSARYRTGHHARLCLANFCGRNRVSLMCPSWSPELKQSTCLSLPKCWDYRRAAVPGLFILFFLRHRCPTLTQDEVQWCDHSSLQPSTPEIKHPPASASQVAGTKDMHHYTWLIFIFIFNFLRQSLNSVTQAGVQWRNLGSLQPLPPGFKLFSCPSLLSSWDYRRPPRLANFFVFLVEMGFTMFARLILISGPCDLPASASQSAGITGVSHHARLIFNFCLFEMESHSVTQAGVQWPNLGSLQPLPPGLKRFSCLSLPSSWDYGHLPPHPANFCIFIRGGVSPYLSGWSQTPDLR

最小反应极限: 9.77 ng/mL
B1: 单克隆抗体1D9 (AD7c-NTP单克隆抗体A1) (antibody, V domains shown)
VH: DVQLQESGPGLVKPSQSLSLTCTVTDYSITSDYAWNWIRQFPGNKLEWMGYISYSGSTNYNPSLKSRFSITRDTSKNQFFLQLNSVTTEDTATYYCAGSELYYGYHYVMDYWGQGTSVTVSS
VL: ENVLTQSPAIMSASLGQKVTMTCSASSSVSSSYLHWYQQRSGASPKPLIHRTSNLASGVPARFSGSGSGTSYSLTISSVEAEDDATYYCQQWSGYPLTFGAGTKLELK
